In publication PMC5500849, “Cobamide-mediated enzymatic reductive dehalogenation via long-range electron transfer” (Nature Communications, 2017):

Test system: Oc1c(Br)cc(Br)cc1Br
Test: purified protein
Conditions: reduced methyl viologen 0.5 mM / Ti(III) citrate 1.4 mM, 100 mM Tris-HCl pH 7.5, 22 °C, no NH4+

Substance: PceA (PceA–Strep) (Sulfurospirillum multivorans)
- Km: 158 µM
- kcat: 8 s⁻¹
